This is an account of results in the domain aggregation screens of Martell et al. (2025).
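Also: 20 min heating vs room temperature control held 20 min.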

The nature of this series: soluble fraction after stress (log2 fold change); higher = more stays soluble; pooled small domains, quantitative proteomics. As to conditions: stress: 75 degC.
Regarding “HMETMSYAEFNAIRIGKAKLMLADPSLKIWEISEAVGYTDTAHFARTFKKLEGMSANEYRNSL”, the “soluble fraction (log2)” value was -0.862. The figure for “HMETNFTGTRIATARKAKNMSQAQLAQQLFISPQAVGKWERGESIPDIVTVVKLADVLGVDLNYFSE” is -0.572. Consider “HMETPQIVARGDLITMVFRSGSLVLTAKGKALENGAMGDTIRVVNSDSNKTLAARVSASREVTVSE”, for which the “soluble fraction (log2)” value is -0.549.

For “HMETPSNTAGITHATSDGYIFKGESDIIGRNSFGFIVKHGSHNHIIPFDSLRGTKWEYLINKYT”, the “soluble fraction (log2)” value came out at 0.000248.

On to “HMETSVDEVYKKIQAYIEAEDKHKPLSDQKLAEQLQSDGLKVSRRTVAKYREKLNIASSSKRKR”, for which the “soluble fraction (log2)” value is 0.242.

For “HMETTVPNVLNHNISTGEILLKENNLNFRIQYIPSNKDEAVGTIINSVPTSGEKVKFGTVVDLKVL”, the “soluble fraction (log2)” value was found to be 0.146. For “HMETVRHFRLDWSQAADRLDKVLASLMNDVSRARIQEWIRLGAVSVNGEILTDVRAKVAGGDAIDVTPQTA”, the “soluble fraction (log2)” value is -0.722. The figure for “HMETVRLSVDAQGAYYWNEQRVDDSALPDLLREASGRKPQPDLHIRGDKAVRYERVAEAMAAAQRAGLKKI” is 0.272; for “HMETVVTEVKTTDVVNIRTSDSETADKLSKAAIGDTFPLLEERGNGWSKVAYNGEEAFIKSDYLEPSKTE” it is 0.0124; for “HMETYEFNITDKEQTGMRVDKLLPELNSDWSRNQIQDWIKAGLVVANDKVVKSNYKVKLNDHIVVTEKEV” it is 0.0567. As to “HMETYPINVETTGTNVLLRTGPSTSSNIIKTITDKGTVFLSIERGINSDWQKVVTPDGTIGYMSGKY”, the “soluble fraction (log2)” value is 0.00405. The figure for “HMEVAVQFIEFKIPENHAWIGKEIREITFPPESILVLIIRDGKKLVPNGKTVLKEGDSLILSGKASD” is -1.43. On to “HMEVDDEAIYQGHEPSIRLHRLLKDVGYNSALLPSVVTQIFKDFPGIELAKALPIAMQLLNED”, for which the “soluble fraction (log2)” value is -0.617.

Turning to “HMEVFGDTKEEQMIIDILKLGITDLEHLQAKSMLEPAIFSQTLTMLEISGKIRPLGAGHWTL”, the “soluble fraction (log2)” value was -2.87.

As to “HMEVFTPSEANVAEAREILAAMATAKANGEGATVYKGRLVDIASIKQAEVIVRQSEMIQSAH”, the “soluble fraction (log2)” value is 0.696. For “HMEVIDQLFKIALTLFDIDKGENNSISQDLVDKVIEQMKTTAPTFIKRELSEDEVKKLRFEIQNHFNV”, the “soluble fraction (log2)” value is -0.482. To “HMEVKSGFVHLTGAVKSPGVYPISIGMRLFEVIALAGGFTAKADRESVNLARTVTDGEQIIVSGSG” belongs -3.72; to “HMEVLEGFIEDIKFKSEESGYTVAKLNNRNKSIVIVGTMPFISEGQHVKLTGEWKIHQKFGAQFNVKELEE”, -0.923. Turning to “HMEVMYFIYQQEEPMRIDKFLVNEMEDFSRNSIQIYIKDNHVLVNDKVVKANYILKKGDAISITIPDPI”, the “soluble fraction (log2)” value is -1.14. The figure for “HMEVNMEEKMEFVHSYIKTHKTFLFRQLLSESKSRTQVIVTFLVILELIKGGKISVTQENRTDDILINSL” is 0.0528; for “HMEVPDTIIRLRELVAAMPEQWQKVYRLVFMEGLSKAKAGKKIGISDVRVGQLVKKINAAIAGDETLK” it is -1.01; for “HMEVPMELPRQLRANRERLGLSQEDVAHAIYVSRQTMSSWERGKTYPDVQSLMLLSHLFGISIDELVKGDV” it is -1.57. For the sequence “HMEVPVQYIKFKIPENHFWAKKKVADIILPPETLLVLLQRGSDKMIPDGETVLLPEDTLVLIAKAPG”, the “soluble fraction (log2)” value was -0.479. The figure for “HMEVSVPDFTGMSKSDAQNAAKEAGLTVNFEEDYDNQVPAGQVIRSNPSAGEKVKKNSSVTVTLSKGSN” is 0.128; for “HMEVSYSLPRFHKGKNPYVDFYQVDPRTLRMRRKKFLLRGVRDAVLLEQRAADLVALLTERLHSGWNAWDD” it is -2.1; for “HMEVTENQEKHAYQEAMDQALRFLAPRFLSRAELTRKLLQKEHDRDVIDAVIDRLEELDYVDDAR” it is -0.013. Consider “HMEVTLGLGSMVRLLGEPYLGSTGRVVELPDQAERFASGLTAKVAVVERHDGELIRVPVTNLLLME”, for which the “soluble fraction (log2)” value is -1.25. The figure for “HMEVTLTLKSFGTAKVAVIKAIQSITGLGLMDAKKLVDAAPSVIKEKISPSEAEQYKKTLVDAGAEVEI” is -2.31.
